Source: paper PMC3416860, “TC10 Is Regulated by Caveolin in 3T3-L1 Adipocytes” (PLoS ONE, 2012)

Assays:
[1] = target: T1, GST-TC10 (Homo sapiens, UniProt P17081); assay: radioligand binding to GST-fusion on glutathione-agarose; details: 10 mM MgCl2, pH 7.5, room temperature, labelled compound
T1 construct: gene RHOQ; GST fusion (GST kept), expressed in E. coli Rosetta-gami (DE3), glutathione-agarose purified; plasmid from I. Macara

[2] = target: myc-Caveolin 1 wild-type (pKMyc-Caveolin 1) (UniProt Q03135); assay: co-IP; COS-1 cells co-transfected with myc-Caveolin 1 and HA-TC10 plasmids; lysed in HNTG buffer (50 mM HEPES pH 7.4, 150 mM NaCl, 10% glycerol, 1% Triton X-100); immunoprecipitated with anti-myc antibodies and Protein A/G beads, blotted for HA
[3] = target: T2, GST-TC10 (human, UniProt P17081 1-205); assay: pull-down; GST-TC10 on glutathione-agarose beads, preincubated with nucleotides as indicated (GDP or a nonhydrolyzable GTP analog), used to precipitate proteins from a 3T3-L1 adipocyte lysate; blot with anti-Caveolin antibodies; details: one partner purified
T2 construct: TC10 (RhoQ); Expression plasmid obtained from Dr. Ian Macara; Used as purified (with endogenous GDP) or preincubated with GDP or a nonhydrolyzable GTP analog; also called TC10-GDP; source: E. coli Rosetta-gami (DE3), purified (glutathione-agarose)

[4] = target: T2, GST-TC10; assay: pull-down; purified MBP-Caveolin 1(1-99) and GST-TC10 incubated with GDP overnight at 4 C; glutathione agarose 1 h, washed, eluted in SDS sample buffer; blots with anti-GST or anti-MBP; details: both partners purified

T2 sequence (P17081 whole entry): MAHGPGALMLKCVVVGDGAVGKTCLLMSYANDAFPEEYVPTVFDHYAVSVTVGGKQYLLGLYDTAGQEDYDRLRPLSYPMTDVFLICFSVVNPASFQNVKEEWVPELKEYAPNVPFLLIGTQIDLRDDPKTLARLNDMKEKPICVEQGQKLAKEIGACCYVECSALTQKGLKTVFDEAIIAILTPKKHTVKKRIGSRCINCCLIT
T1 sequence (P17081 whole entry, the tested form may be a part): as the sequence (P17081 whole entry) above

## Nc1nc2c(ncn2[C@@H]2O[C@H](COP(=O)(O)OP(=O)(O)OP(O)(O)=S)[C@@H](O)[C@H]2O)c(=O)[nH]1 [GTPγS]
[1]
  radioligand binding to GST-fusion on glutathione-agarose: incubated radiolabeled GTPγS with recombinant GST, GST-TC10 or GST-Cdc42

## HA-TC10 T31N (pKH3-TC10 T31N), dominant-interfering mutant (natural protein)
[2]
  fold interaction against the constitutively active allele (Q75L): > 10 fold

## HA-TC10 Y37A/Y46A (pKH3-TC10 Y37A/Y46A) (natural protein)
[2]
  percent decrease of co-immunoprecipitation against wild-type TC10: > 75%

B1: Caveolin 1, endogenous in 3T3-L1 adipocytes (natural protein, mouse (endogenous in 3T3-L1), UniProt P49817 1-178, looked up)
chain: MSGGKYVDSEGHLYTVPIREQGNIYKPNNKAMADEVTEKQVYDAHTKEIDLVNRDPKHLNDDVVKIDFEDVIAEPEGTHSFDGIWKASFTTFTVTKYWFYRLLSTIFGIPMALIWGIYFAILSFLHIWAVVPCIKSFLIEIQCISRVYSIYVHTFCDPLFEAIGKIFSNIRISTQKEI
notes: Caveolin 1, endogenous, detected with anti-Caveolin antibodies; source: endogenous, 3T3-L1 adipocyte lysate
[3]
  fold enhancement of the interaction after GDP binding: ~2 fold

B2: MBP-Caveolin 1(1-99) (domain or fragment, UniProt Q03135 1-99, looked up)
chain: MSGGKYVDSEGHLYTVPIREQGNIYKPNNKAMADELSEKQVYDAHTKEIDLVNRDPKHLNDDVVKIDFEDVIAEPEGTHSFDGIWKASFTTFTVTKYWF
notes: Caveolin 1, the first 99 amino acids; The vector may add further tags and a TEV site; source: E. coli Rosetta-gami (DE3), purified (amylose resin)
[4]
  fold precipitated with TC10-GDP against GTP analog bound TC10: > 4 fold
